Results published in US20260250421A1.

Target: His-tagged dog TROP2 protein (dog)
Experiment: SPR Biacore 8K, Ab on Protein A chip

| Binder | Kd | koff | kon |
| --- | --- | --- | --- |
| DS-1062 analog-LALA (antibody, V domains shown) VH: QVQLVQSGAEVKKPGASVKVSCKASGYTFTTAGMQWVRQAPGQGLEWMGWINTHSGVPKYAEDFKGRVTISADTSTSTAYLQLSSLKSEDTAVYYCARSGFGSSYWYFDVWGQGTLVTVSS VL: DIQMTQSPSSLSASVGDRVTITCKASQDVSTAVAWYQQKPGKAPKLLIYSASYRYTGVPSRFSGSGSGTDFTLTISSLQPEDFAVYYCQQHYITPLTFGQGTKLEIKR | 0.0272 µM | 0.000812 s⁻¹ | 29900 M⁻¹ s⁻¹ |
| Sacituzumab analog (antibody, V domains shown) VH: QVQLQQSGSELKKPGASVKVSCKASGYTFTNYGMNWVKQAPGQGLKWMGWINTYTGEPTYTDDFKGRFAFSLDTSVSTAYLQISSLKADDTAVYFCARGGFGSSYWYFDVWGQGSLVTVSS VL: DIQLTQSPSSLSASVGDRVSITCKASQDVSIAVAWYQQKPGKAPKLLIYSASYRYTGVPDRFSGSGSGTDFTLTISSLQPEDFAVYYCQQHYITPLTFGAGTKVEIKR | 0.042 µM | 0.00858 s⁻¹ | 204000 M⁻¹ s⁻¹ |
